Laboratory results from patent publication US20210277109A1 (SYSTIMMUNE, published 2021).

B1: 324C7 (antibody, V domains shown)
VH: QSVEESGGRLVTPGTPLTLTCTVSGFSLSGAGVSWVRQAPGKGLEWIGYIDSGATTYYASWAKGRFTISKASTTVDLKIASPTTEDTATYFCARGYYGMDPWGQGTLVTVSS
VL: DIVMTQTPASVEVAVGGTVTIKCQASQNIGSDLAWYQQKPGQPPKLLIYTTSNLASGVPSRFKGSGSGTGFTLTISDLECADAASYCCQGGYFSGRNIYGNAFGGGTEVVVK
notes: chimeric counterpart m4; also called rabbit IgG of BCC well 324C7
B2: 330F11 (antibody, V domains shown)
VH: QSVEESGGRLVTPGTPLTLTCTVSGFSLNNYWMSWVRQAPGEGLEWIGTISSGAYTWFATWATGRFTISKTSTTVDLSITSPTTEDTATYFCARYSSTTDWTYFNIWGPGTLVTVSS
VL: DVVMTQTPASVEAAVGGTVTIKCQASQSINNYLAWYQQKPGQPPKLLIYRASTLESGVPSRFKGSGSGTQFTLTISDLECADAATYYCQSYNGVGRTAFGGGTEVEFK
notes: chimeric counterpart m9; also called rabbit IgG of BCC well 330F11
B3: 323H7 (antibody, V domains shown)
VH: QEQLKESGGGLVTPGGTLTLTCTASGFTISRYHMTWVRQAPGKGLEWIGHIYVNNDDTDYASWAKGRFTISKTSTTVDLKITSPTTEDTATYFCARLDVGGGGAYIGDIWGQGTLVTVSS
VL: QAVVTQTPSSVSAAVGGTVTISCQSSQSVYNNNDLAWYQQKPGQPPKLLIYYASTLASGVSSRFKGSGSGTQFTLAISDLECDDSATYYCAGGYDTDGLDTFAFGGGTEVEVK
notes: chimeric counterpart m3; also called rabbit IgG of BCC well 323H7
B4: 323D10 chimeric rabbit/human IgG antibody (antibody, V domains shown)
VH: QSVEESGGRLVTPGTPLTLTCTVSGFSLSRNAMNWVRQAPGKGLEYIGYISTSGTTFYANWVKGRFTISKTSTTVDLKMTSLTTEDTATYFCARDYNYAMDIWGQGTLVTVSS
VL: AIDLTQTPASVEAAVGGTITINCQASESISSWLAWYQQKPGQRPKLLIYETSKLASGVPPRFSGSGSGTQFTLTISGVQCDDAATYYCQSYYRINNIGYDNAFGGGTEVEFKR
notes: Rabbit variable regions on human gamma-1 and human kappa constant domains
B5: 324E2 chimeric rabbit/human IgG antibody (antibody, V domains shown)
VH: QSVEESGGRLVTPGTPLTLTCTVSGFSLSNNAITWVRQAPGKGLEYIGIISSSGTTYYASWAKGRFTISKTSSTTVDLKMTSLTTEDTATYFCAGAFSVWGPGTLVTVSS
VL: AQVLTQTPSSVSAAVGGTVTINCQSSQSVNNNDLAWFQQKPGQPPKRLIYWASKLASGVPSRFKGSGSGTQFILTISDLECDDAATYYCAGGYSGNIYGFGGGTEVEVKR
notes: as for B4
B6: 330F11 humanized antibody (antibody, human IgG1, kappa, V domains shown)
VH: EVQLVESGGGLVQPGGSLRLSCAASGFSLNNYWMSWVRQAPGKGLEWIGTISSGAYTWFATWATGRFTISRDNSKNTLYLQMNSLRAEDTAVYYCARYSSTTDWTYFNIWGQGTLVTVSS
VL: DIQMTQSPSTLSASVGDRVTITCQASQSINNYLAWYQQKPGKAPKLLIYRASTLESGVPSRFSGSGSGTEFTLTISSLQPDDFATYYCQSYNGVGRTAFGGGTKVEIKR
notes: Human gamma-1 and human kappa constant domains
B7: 323H7 humanized antibody (antibody, human IgG1, kappa, V domains shown)
VH: EVQLLESGGGLVQPGGSLRLSCAASGFTISRYHMTWVRQAPGKGLEWIGHIYVNNDDTDYASSAKGRFTISRDNSKNTLYLQMNSLRAEDTATYFCARLDVGGGGAYIGDIWGQGTLVTVSS
VL: DIQMTQSPSSLSASVGDRVTITCQSSQSVYNNNDLAWYQQKPGKVPKLLIYYASTLASGVPSRFSGSGSGTDFTLTISSLQPEDVATYYCAGGYDTDGLDTFAFGGGTKVEIKR
notes: as for B6
B8: 324C6 humanized antibody (antibody, human IgG1, kappa, V domains shown)
VH: QSLVESGGGLVQPGGSLRLSCTASGFSLSRYYMTWVRQAPGKGLEWIGTIYTSGSTWYASWTKGRFTISKDNTKNTVDLQMNSLRAEDTAVYYCARSYYGGDKTGLGIWGQGTLVTVSS
VL: DIQMTQSPSTLSASVGDRVTITCQASQSIDSWLSWYQQKPGKAPKLLIYQASTLASGVPSRFSGSGSGTEFTLTISSLQPDDFATYYCQSAYGVSGTSSYLYTFGGGTKVEIKR
notes: as for B6
B9: 324E2 humanized antibody (antibody, human IgG1, kappa, V domains shown)
VH: QSVEESGGGLVQPGGSLRLSCTASGFSLSNNAITWVRQAPGKGLEYIGIISSSGTTYYASSAKGRFTISKDTSKNTVDLQMNSLRAEDTAVYYCAGAFSVWGQGTLVTVSS
VL: DIQMTQSPSSLSASVGDRVTITCQSSQSVNNNDLAWYQQKPGKAPKRLIYWASKLASGVPSRFSGSGSGTEFTLTISNLQPEDFATYYCAGGYSGNIYGFGGGTKVEIKR
notes: as for B6
B10: 338H4 humanized antibody (antibody, human IgG1, kappa, V domains shown)
VH: EVQLVESGGGLVQPGGSLRLSCTASGFSLSSYAMSWVRQAPGRGLEWIGIIYASGSTYYASSAKGRFTISKDNTKNTVDLQMNSLRAEDTAVYYCARIYDGMDLWGQGTLVTVSS
VL: DIQMTQSPSSLSASVGDRVTINCQASQNIYSYLSWYQQKPGKVPKRLIYLASTLASGVPSRFSGSGSGTDYTLTISSLQPEDVATYYCQSNYNGNYGFGGGTKVEIKR
notes: as for B6
B11: 323D10 humanized antibody (antibody, human IgG1, kappa, V domains shown)
VH: EVQLVESGGGLVQPGGSLRLSCTASGFSLSRNAMNWVRQAPGKGLEYIGYISTSGTTFYANSVKGRFTISKDNTKNTVDLQMNSLRAEDTAVYYCARDYNYAMDIWGQGTLVTVSS
VL: AIDLTQSPSTLSASVGGTITINCQASESISSWLAWYQQKPGKAPKLLIYETSKLASGVPSRFSGSGSGTEFTLTISSLQPDDFATYYCQSYYRINNIGYDNAFGGGTKVEIKR
notes: as for B6
B12: 226E12 humanized antibody (antibody, human IgG1, kappa, V domains shown)
VH: EVQLLESGGGLVQPGGSLRLSCAASGFSLSNYYMSWVRQAPGKGLEWIGAINADSDNTWYPSWVKGRFTISRDNSKNTLYLQMNSLRAEDTAVYYCARSVSNNFAEYNIWGQGTLVTVSS
VL: DIQMTQSPSSLSASVGDRVTITCQASQRIYSYLAWYQQKPGKVPKLLIYRASTLASGVPSRFSGSGSGTDFTLTISSLQPEDVATYYCQQGASMVDVENMFGGGTKVEIKR
notes: as for B6
B13: 338H4 chimeric rabbit/human IgG antibody (antibody, V domains shown)
VH: QSVEESGGRLVTPGTPLTLTCTVSGFSLSSYAMSWVRQAPGRGLEWIGIIYASGSTYYASWAKGRFTISKTSTTVDLKITSPTTEDTATYFCARIYDGMDLWGPGTLVTVSS
VL: DIVMTQTPASVSAAVGGTVTINCQASQNIYSYLSWYQQKPGQPPKRLIYLASTLASGVPSRFKSSGSGTEYTLTISDLECDDAATYYCQSNYNGNYGFGGGTEVEVKR
notes: as for B4
B14: 324C6 chimeric rabbit/human IgG antibody (antibody, V domains shown)
VH: QSLEESGGRLVTPGTPLTLTCTASGFSLSRYYMTWVRQAPGKGLEWIGTIYTSGSTWYASWTKGRFTISKTSTTVDLKITSPTTEDTATYFCARSYYGGDKTGLGIWGPGTLVTVSS
VL: DVVMTQTPASVEAAVGGTVTIKCQASQSIDSWLSWYQQKPGQPPKLLIYQASTLASGVSSRFKGSGSGTEFTLTISDLECADAATYYCQCAYGVSGTSSYLYTFGGGTEVEVKR
notes: as for B4
B15: 338H4 (antibody, V domains shown)
VH: B13 VH
VL: DIVMTQTPASVSAAVGGTVTINCQASQNIYSYLSWYQQKPGQPPKRLIYLASTLASGVPSRFKSSGSGTEYTLTISDLECDDAATYYCQSNYNGNYGFGGGTEVEVK
notes: chimeric counterpart m8; also called rabbit IgG of BCC well 338H4
B16: 324C6 (antibody, V domains shown)
VH: B14 VH
VL: DVVMTQTPASVEAAVGGTVTIKCQASQSIDSWLSWYQQKPGQPPKLLIYQASTLASGVSSRFKGSGSGTEFTLTISDLECADAATYYCQCAYGVSGTSSYLYTFGGGTEVEVK
notes: chimeric counterpart m7; also called rabbit IgG of BCC well 324C6

The binders below were run against T1, Human ROR1-CHO cells (human, UniProt Q01973) (assay: FACS; BCC supernatant).
T1 construct: expressed on the surface of CHO cells; also called human ROR1 on CHO cells
T1 sequence (Q01973 30-937 limits assumed): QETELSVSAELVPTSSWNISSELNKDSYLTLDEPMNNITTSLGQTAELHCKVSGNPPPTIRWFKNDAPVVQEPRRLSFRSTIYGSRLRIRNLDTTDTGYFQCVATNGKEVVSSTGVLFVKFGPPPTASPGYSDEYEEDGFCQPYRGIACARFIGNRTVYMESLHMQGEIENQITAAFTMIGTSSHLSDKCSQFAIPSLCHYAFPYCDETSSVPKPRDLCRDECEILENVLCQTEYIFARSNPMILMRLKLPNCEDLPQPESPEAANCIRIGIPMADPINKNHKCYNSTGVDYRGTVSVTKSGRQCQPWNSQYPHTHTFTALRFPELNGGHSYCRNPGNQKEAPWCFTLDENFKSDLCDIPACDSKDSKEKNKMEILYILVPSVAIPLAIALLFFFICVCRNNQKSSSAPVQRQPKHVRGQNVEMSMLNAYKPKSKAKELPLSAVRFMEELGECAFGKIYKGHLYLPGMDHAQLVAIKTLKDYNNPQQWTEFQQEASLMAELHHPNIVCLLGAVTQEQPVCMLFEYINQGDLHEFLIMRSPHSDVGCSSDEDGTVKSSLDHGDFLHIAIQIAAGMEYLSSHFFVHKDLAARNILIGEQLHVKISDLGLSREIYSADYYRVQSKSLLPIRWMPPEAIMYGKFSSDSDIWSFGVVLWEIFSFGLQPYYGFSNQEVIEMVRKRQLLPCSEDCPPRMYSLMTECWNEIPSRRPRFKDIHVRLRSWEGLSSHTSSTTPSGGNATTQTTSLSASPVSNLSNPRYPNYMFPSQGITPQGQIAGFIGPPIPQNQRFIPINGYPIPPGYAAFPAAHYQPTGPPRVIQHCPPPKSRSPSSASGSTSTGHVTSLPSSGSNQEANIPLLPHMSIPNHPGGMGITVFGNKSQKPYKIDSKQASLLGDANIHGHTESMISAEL

Row | FACS MFI [MFI] | Binder
1 | 190 | B1
2 | 5 | B2
3 | 90 | B3

Each binder was assayed against T2, recombinant human ROR1 extracellular domain protein (human, UniProt Q01973 30-406) (assay: Octet, bi-valent binding to human ROR1).
T2 construct: extracellular domain; Analyte in solution in the Octet assay; also called human ROR1 ECD
T2 sequence (Q01973 30-406): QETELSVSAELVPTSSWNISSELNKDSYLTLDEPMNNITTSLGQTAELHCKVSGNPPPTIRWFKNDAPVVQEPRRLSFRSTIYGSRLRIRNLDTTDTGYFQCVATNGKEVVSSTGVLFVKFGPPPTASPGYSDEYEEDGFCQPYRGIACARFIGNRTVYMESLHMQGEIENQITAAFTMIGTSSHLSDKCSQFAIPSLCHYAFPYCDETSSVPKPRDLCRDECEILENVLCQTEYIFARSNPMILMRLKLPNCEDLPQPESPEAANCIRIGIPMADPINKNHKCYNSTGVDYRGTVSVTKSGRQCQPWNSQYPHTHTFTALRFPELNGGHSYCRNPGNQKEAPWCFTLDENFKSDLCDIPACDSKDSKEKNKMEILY

Row | koff [s⁻¹] | Binder
4 | 0.00961 | B4
5 | 0.00572 | B5

These binders were tested against T2, recombinant human ROR1 extracellular … (assay: Octet, monovalent binding to human ROR1).

Row | koff [s⁻¹] | Binder
6 | 0.0297 | B6
7 | 0.0007 | B7
8 | 0.0403 | B8
9 | 0.0061 | B9
10 | 0.00238 | B10
11 | 0.00424 | B11
12 | 0.0415 | B12

The binders below were run against T2, recombinant human ROR1 extracellular … (assay: Octet, mono-valent binding to human ROR1).
From the text: The heavy and light chain expression plasmids generated from each well were transiently co-transfected to produce rabbit/human chimeric antibodies. Recombinant antibody supernatants were confirmed to contain anti-ROR1 antibodies using bio-layer interferometry analysis on a ForteBio Octet Red 96 instrument. Anti-human Fc biosensors (Pall ForteBio) were used to capture antibodies in the supernatants. Association to ROR1 was observed by real-time interferometry by placing the biosensors in wells containing recombinant human ROR1 extracellular domain protein. Dissociation was measured after transfer of the biosensors into wells containing 10× kinetics buffer (Pall ForteBio). The software provided by the manufacturer was used to analyze the interferometry data.

Row | koff [s⁻¹] | Binder
13 | 1.17e-08 | B13

Each binder was assayed against T3, Human ROR2 (human, UniProt Q01974) (assay: Octet).
T3 sequence (Q01974 34-403 limits assumed): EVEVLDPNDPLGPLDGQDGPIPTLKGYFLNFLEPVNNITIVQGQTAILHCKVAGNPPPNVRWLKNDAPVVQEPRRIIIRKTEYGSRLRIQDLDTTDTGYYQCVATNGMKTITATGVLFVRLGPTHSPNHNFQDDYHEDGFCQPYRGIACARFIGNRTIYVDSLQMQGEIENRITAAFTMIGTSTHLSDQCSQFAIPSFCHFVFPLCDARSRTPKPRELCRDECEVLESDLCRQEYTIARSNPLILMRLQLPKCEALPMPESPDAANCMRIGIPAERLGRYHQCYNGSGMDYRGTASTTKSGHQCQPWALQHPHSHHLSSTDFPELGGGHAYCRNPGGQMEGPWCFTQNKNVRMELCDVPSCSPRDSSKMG

Row | binding result | Binder
14 | no binding | B14
15 | no binding | B4
16 | no binding | B5
17 | no binding | B13

These binders were tested against T4, human ROR1 'Frizzled-Kringle domain' (human, UniProt Q01973) (assay: Octet).
T4 construct: used plain or biotinylated
T4 sequence (Q01973 165-406 limits assumed): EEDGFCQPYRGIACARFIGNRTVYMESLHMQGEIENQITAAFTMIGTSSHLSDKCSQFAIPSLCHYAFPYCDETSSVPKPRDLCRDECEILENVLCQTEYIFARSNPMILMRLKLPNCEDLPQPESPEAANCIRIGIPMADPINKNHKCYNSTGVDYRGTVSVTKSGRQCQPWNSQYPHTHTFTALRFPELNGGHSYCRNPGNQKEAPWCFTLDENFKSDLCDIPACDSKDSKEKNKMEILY

Row | binding result | Binder
18 | no binding | B4
19 | no binding | B5

These binders were tested against T2, recombinant human ROR1 extracellular … (assay: ELISA, direct coat; BCC supernatant).

Row | ELISA OD450 [OD450] | Binder
20 | 2.74 | B1
21 | 0.98 | B2
22 | 1.82 | B3
23 | 4 | B15

The binders below were run against T5, human ROR1 'Ig-Frizzled domain' (human, UniProt Q01973) (assay: ELISA, direct coat; BCC supernatant).
T5 construct: used plain or biotinylated
T5 sequence (Q01973 30-305 limits assumed): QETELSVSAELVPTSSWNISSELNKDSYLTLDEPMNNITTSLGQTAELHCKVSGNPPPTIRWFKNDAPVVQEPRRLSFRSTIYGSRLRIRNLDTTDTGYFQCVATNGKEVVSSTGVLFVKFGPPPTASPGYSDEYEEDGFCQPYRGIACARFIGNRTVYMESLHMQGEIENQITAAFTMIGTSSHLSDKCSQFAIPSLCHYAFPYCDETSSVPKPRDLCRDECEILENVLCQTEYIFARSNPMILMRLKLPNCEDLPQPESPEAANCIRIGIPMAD

Row | ELISA OD450 [OD450] | Binder
24 | 2.46 | B1
25 | 0.28 | B2
26 | 1.67 | B3
27 | 2.77 | B15

These binders were tested against T3, Human ROR2 (assay: ELISA, direct coat; BCC supernatant).

Row | ELISA OD450 [OD450] | Binder
28 | 0.18 | B1
29 | 0.25 | B2
30 | 0.17 | B16
31 | 0.18 | B3
32 | 0.17 | B15

These binders were tested against T4, human ROR1 'Frizzled-Kringle domain' (assay: ELISA, direct coat; BCC supernatant).

Row | ELISA OD450 [OD450] | Binder
33 | 0.13 | B1
34 | 1.98 | B2
35 | 0.16 | B3
36 | 3.01 | B15

What follows are binders tested against mouse ROR1 (serum titer ELISA antigen) (mouse, UniProt Q9Z139 30-403, limits assumed) (assay: ELISA, direct coat; BCC supernatant).
Chain of mouse ROR1 (serum titer ELISA antigen) (Q9Z139 30-403 limits assumed): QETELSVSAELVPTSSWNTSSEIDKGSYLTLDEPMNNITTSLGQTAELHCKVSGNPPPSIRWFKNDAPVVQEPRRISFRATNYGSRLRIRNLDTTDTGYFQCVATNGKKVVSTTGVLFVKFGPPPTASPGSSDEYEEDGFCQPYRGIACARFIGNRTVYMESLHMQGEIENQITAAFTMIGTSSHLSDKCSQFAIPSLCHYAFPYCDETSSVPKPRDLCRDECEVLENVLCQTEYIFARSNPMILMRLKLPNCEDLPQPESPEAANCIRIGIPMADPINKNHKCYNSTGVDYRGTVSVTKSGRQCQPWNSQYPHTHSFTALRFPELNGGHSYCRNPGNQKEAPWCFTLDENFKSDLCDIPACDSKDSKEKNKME

Row | ELISA OD450 [OD450] | binding result | Binder
37 | 0.21 | no binding | B1
38 | 4 | – | B2
39 | 0.2 | no binding | B3
40 | 4 | – | B15

What follows are binders tested against T5, human ROR1 'Ig-Frizzled domain' (assay: ELISA, biotinylated antigen on avidin plate; BCC supernatant).

Row | ELISA OD450 [OD450] | Binder
41 | 2.67 | B1
42 | 0.15 | B2
43 | 1.78 | B3
44 | 0.22 | B15

These binders were tested against T4, human ROR1 'Frizzled-Kringle domain' in the same assay as above.

Row | ELISA OD450 [OD450] | Binder
45 | 0.13 | B1
46 | 1.71 | B2
47 | 0.16 | B3
48 | 1.8 | B15
